Target: 15N-labeled AR DBD (human, UniProt P10275 558-648)
Test: NMR

Chain of 15N-labeled AR DBD (P10275 558-648): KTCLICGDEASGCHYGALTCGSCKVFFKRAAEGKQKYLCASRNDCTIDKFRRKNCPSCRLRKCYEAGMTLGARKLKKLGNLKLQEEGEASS

B1: ADR3 DNA duplex (NMR) (dsDNA)
DNA 1: CCAGAACATCAAGAACAC
DNA 2: GTGTTCTTGATGTTCTGG
B1: binds.
